Measured values from patent publication US20240026024A1 (SHANGHAI HUAOTA BIOPHARMACEUTICAL, published 2024).

Tests used:
[1] = target: T1, human CD73 on the cell surface (human, UniProt P21589 27-549); assay: cell-based or functional assay
T1 sequence: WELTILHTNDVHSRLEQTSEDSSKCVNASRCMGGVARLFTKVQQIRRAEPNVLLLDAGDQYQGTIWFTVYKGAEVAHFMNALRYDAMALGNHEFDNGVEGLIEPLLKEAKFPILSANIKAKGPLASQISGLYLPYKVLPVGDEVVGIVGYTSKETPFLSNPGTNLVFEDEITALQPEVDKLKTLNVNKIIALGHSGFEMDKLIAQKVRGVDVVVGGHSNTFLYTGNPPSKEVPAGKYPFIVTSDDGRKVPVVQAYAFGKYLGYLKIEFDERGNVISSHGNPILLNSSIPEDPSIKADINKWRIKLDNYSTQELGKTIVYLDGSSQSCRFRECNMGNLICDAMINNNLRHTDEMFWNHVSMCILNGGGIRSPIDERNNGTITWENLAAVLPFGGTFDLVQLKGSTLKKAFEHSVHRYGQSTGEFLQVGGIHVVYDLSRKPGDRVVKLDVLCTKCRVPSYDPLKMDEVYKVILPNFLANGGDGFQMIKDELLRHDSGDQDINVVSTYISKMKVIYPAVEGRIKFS

[2] = target: T1, human CD73 on the cell surface; assay: flow cytometry on CHOK1-huCD73-3F4 cells, PE anti-human Fc
Procedure: All the antigen-binding proteins were diluted to 30 μg/ml with PBS solution containing 1% BSA (1% BSA/PBS), diluted at 3-fold into 11 gradients and then added to a 96-well U-shaped plate at 20 μL/well, and negative control (1% BSA/PBS was added only) was set up simultaneously. The suspension of human CD73-expressing cells (CHOK1-huCD73-3F4, Huabo Biopharm) in the logarithmic growth phase were collected and centrifuged at 1000 rpm for 5 min, and the culture medium was discarded; then the cells were resuspended with 1% BSA/PBS to a viable cell density of 1×10⁶/mL, and then added into the 96-well U-shaped plate already added with anti-CD73 antigen-binding protein at 20 μL (2×10⁴ cells)/well for reaction at room temperature for 30 min. […] After the reaction, the cells in the 96-well U-shaped plate were resuspended with 1% BSA/PBS and centrifuged at 300 g for 3 min and the supernatant was discarded; after washing in this manner 3 times, and the cells were finally resuspended with 1% BSA/PBS at 100 μL/well, and the fluorescence intensity of the PE channel was measured with a flow cytometer (BD, #Canto II).

B1: 900581 (antibody, human IgG1, V domains shown)
VH: EVQLVESGGGLVKPGGSLKLSCAASGFTFSKYAMSWVRQSPEKRLEWVAEISSGGGYINYPDTVTGRFTISRDNAKNTLYLEMSSLRSGDTAMYYCARAIYYYGSSYNYYAMDYWGQGTSVTVSS
VL: DIVMTQSHKFMSTSVGDRVSITCKASQDVGTAEAWYQQKPGQSPKLLIYWASTRHTGVPDRFTGSGSGTDFTLTIGNVQSEDLADYFCQQYSSYPLTFGGGTKLEIK
EC50(µg/mL), inhibition of enzyme activity of CD73 on CHOK1-huCD73-3F4 cells [1]: 0.944 µg/mL
EC50 [2]: 0.426 µg/mL
